In US20120201746A1 (AbbVie / Abbott, published 2012):
Residue numbers refer to the chain shown, from its start. Numbers in names are those of the source. Where two headings read alike, the source gives them in different places.

Key:
[1] = target: T1, Recombinant Human IL-1β (human, UniProt P01584 117-269); assay: SPR (BIAcore)
T1 construct: also called IL-1b
Method: (§1) The BIAcore® assay (BIAcore®, Inc, Piscataway, N.J.) determines the affinity of antibodies with kinetic measurements of on-rate and off-rate constants. Binding of antibodies to a target antigen (for example, a purified recombinant target antigen) is determined by surface plasmon resonance-based measurements with a BIAcore® 1000 or 3000 instrument (BIAcore® AB, Uppsala, Sweden) using running HBS-EP (10 mM HEPES [pH 7.4], 150 mM NaCl, 3 mM EDTA, and 0.005% surfactant P20) at 25° C. […] Unreacted moieties on the biosensor surface are blocked with ethanolamine. Modified carboxymethyl dextran surface in flowcell 2 and 4 is used as a reaction surface. Unmodified carboxymethyl dextran without goat anti-mouse IgG in flow cell 1 and 3 is used as the reference surface. For kinetic analysis, rate equations derived from the 1:1 Langmuir binding model are fitted simultaneously to association and dissociation phases of all eight injections (using global fit analysis) with the use of Biaevaluation 4.0.1 software. Purified antibodies are diluted in HEPES-buffered saline for capture across goat anti-mouse IgG specific reaction surfaces. […] The association and dissociation rate constants, kₒₙ (M⁻¹s⁻¹) and koff (s⁻¹), are determined under a continuous flow rate of 25 μl/minute. Rate constants are derived by making kinetic binding measurements at different antigen concentrations ranging from 10-200 nM. The equilibrium dissociation constant (M) of the reaction between antibodies and the target antigen is then calculated from the kinetic rate constants by the following formula: KD=koff/kₒₙ. Binding is recorded as a function of time and kinetic rate constants are calculated.

[2] = target: T1, Recombinant Human IL-1β; assay: cell-based or functional assay
[3] = target: T1, Recombinant Human IL-1β; assay: SPR (BIAcore); *off-rate at the limit of dissociation after 1 hour
Method: The BIAcore® assay (BIAcore®, Inc, Piscataway, N.J.) determines the affinity of antibodies with kinetic measurements of on-rate and off-rate constants. Binding of antibodies to a target antigen (for example, a purified recombinant target antigen) is determined by surface plasmon resonance-based measurements with a BIAcore® 1000 or 3000 instrument (BIAcore® AB, Uppsala, Sweden) using running HBS-EP (10 mM HEPES [pH 7.4], 150 mM NaCl, 3 mM EDTA, and 0.005% surfactant P20) at 25° C. […] Unreacted moieties on the biosensor surface are blocked with ethanolamine. Modified carboxymethyl dextran surface in flowcell 2 and 4 is used as a reaction surface. Unmodified carboxymethyl dextran without goat anti-mouse IgG in flow cell 1 and 3 is used as the reference surface. […] The association and dissociation rate constants, kₒₙ (M⁻¹s⁻¹) and koff (s⁻¹), are determined under a continuous flow rate of 25 μl/minute. […] The equilibrium dissociation constant (M) of the reaction between antibodies and the target antigen is then calculated from the kinetic rate constants by the following formula: KD=koff/kₒₙ. Binding is recorded as a function of time and kinetic rate constants are calculated.

[4] = target: T2, biotin-labeled c-Met (UniProt P08581 25-932, limits assumed, biotin-labeled); assay: ELISA, biotin-labeled c-Met detected with streptavidin-HRP; parental full antibody
T2 sequence (P08581 25-932 limits assumed): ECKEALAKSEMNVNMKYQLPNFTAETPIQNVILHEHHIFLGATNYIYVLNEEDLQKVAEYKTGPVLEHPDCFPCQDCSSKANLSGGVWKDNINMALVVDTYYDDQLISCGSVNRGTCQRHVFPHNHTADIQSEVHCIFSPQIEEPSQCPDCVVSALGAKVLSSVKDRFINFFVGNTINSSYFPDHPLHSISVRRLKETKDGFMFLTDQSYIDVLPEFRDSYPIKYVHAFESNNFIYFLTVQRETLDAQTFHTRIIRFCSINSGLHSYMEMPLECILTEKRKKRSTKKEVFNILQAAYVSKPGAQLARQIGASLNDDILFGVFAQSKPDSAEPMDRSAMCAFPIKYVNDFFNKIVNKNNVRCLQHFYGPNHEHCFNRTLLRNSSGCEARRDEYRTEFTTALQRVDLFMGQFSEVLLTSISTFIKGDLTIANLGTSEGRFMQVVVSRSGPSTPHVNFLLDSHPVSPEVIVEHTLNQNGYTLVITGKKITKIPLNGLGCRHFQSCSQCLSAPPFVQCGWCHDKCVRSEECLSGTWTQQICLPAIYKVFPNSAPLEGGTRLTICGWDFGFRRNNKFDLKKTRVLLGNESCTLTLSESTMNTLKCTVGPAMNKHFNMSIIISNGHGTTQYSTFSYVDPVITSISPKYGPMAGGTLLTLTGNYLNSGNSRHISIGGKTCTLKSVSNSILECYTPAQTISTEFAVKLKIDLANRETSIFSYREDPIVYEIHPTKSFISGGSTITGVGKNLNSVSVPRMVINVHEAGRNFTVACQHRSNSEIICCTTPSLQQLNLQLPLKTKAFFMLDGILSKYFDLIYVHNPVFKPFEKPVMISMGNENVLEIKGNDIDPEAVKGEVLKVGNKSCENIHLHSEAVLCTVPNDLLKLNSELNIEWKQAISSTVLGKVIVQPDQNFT
Method: (§2) c-Met binding ELISA was performed to characterize the antigen binding property of anti-c-Met half-Igs. 96-well ELISA plates were coated with 100 μl/well 5 μg/ml anti-mouse IgG Fc in PBS at 4° C. overnight. After 3 washes with PBS/0.05% Tween®20, the plates were blocked with 5% milk in PBS for 1 hour at room temperature. After another 3 washes with PBS/0.05% Tween®20, 100 μl c-Met antibody or half-Ig was added to each well followed by an incubation of 1 hour at room temperature. Binding biotin-labeled c-Met was detected by Streptavidin-horseradish peroxidase (KPL, Gaithersburg, Md.) and tetramethylbenzidine (Thermo Scientific, Rockford, Ill.). Final absorbances were acquired at 450 nm after stopping the reactions with 2 mol/L H₂SO₄.

[5] = target: T3, Neonatal Fc receptor (FcRn) on CHO-FcRnGPI cells; assay: flow cytometry on CHO-FcRnGPI cells, pH 6.4
T3 construct: whole, on cells; also called FcRn receptor
T3 sequence (P55899 24-297, chain 1 of 2): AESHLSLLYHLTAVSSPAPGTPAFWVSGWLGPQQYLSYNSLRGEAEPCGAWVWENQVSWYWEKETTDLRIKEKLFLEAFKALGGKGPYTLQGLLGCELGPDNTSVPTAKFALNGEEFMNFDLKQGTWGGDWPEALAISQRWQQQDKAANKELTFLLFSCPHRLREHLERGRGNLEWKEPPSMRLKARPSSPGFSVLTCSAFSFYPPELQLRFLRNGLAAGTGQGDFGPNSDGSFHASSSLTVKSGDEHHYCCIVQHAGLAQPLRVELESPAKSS
T3 sequence (P61769 21-119, chain 2 of 2, further chain): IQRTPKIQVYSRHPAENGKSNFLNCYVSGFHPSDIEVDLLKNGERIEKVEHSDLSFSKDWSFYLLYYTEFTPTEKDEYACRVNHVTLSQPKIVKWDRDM
Method: (§3) CHO-FcRnGPI cells (Stable FcRn receptor expressor) and CHO-pBudl l cells (non-FcRn expressor) were aliquotted into 96-well plates at 1×10⁵ cells/well. Cells were resuspended in 150 μl FACS buffer. Anti-c-Met Ab and half-Ig binding proteins were diluted to 100 μg/ml in FACS buffer pH 6.4 and pH 7.4. 30 μl of diluted antibody or half-Ig binding protein was added to each well and incubated on ice for 1 hour. Following 2 washes with FACS buffer, 50 μl of secondary antibody R-phycoerythrin-conjugated AfiniPure F(ab′)₂ Fragment goat anti-human IgG (Jackson ImmunoResearch®, West Grove, Pa.) diluted in FACS buffer pH 6.4 or pH7.4 was added. The mixture was incubated for 30 min on ice. The cells were resuspended in 100 μl PBS with 1% FBS (Invitrogen®, Carlsbad, Calif.) and 2 μg/ml propidium iodide (Invitrogen®, Carlsbad, Calif.) of the corresponding pH. Final FACS data were acquired on a FACScan (Becton Dickinson, Franklin Lakes, N.J.).

[6] = target: T3, Neonatal Fc receptor (FcRn) on …; assay: flow cytometry on CHO-FcRnGPI cells, pH 6.4; remark: listed apart in the source
Method: as §3

[7] = target: T2, biotin-labeled c-Met; assay: ELISA, biotin-labeled c-Met detected with streptavidin-HRP; half-Ig (cMet-Mut6)
Method: as §2

[8] = target: T4, recombinant human IL-18 (human, UniProt Q14116 37-193); assay: SPR (BIAcore)
T4 construct: Human is stated for the KG-1 bioassay; also called rhIL-18; rIL-18
Method: as §1

[9] = target: T5, human IL-12 (human, UniProt P29459 23-219; P29460 23-328); assay: SPR (BIAcore)
T5 construct: Human is stated for the bioassay; also called rhIL-12
T5 sequence (looked up) 1: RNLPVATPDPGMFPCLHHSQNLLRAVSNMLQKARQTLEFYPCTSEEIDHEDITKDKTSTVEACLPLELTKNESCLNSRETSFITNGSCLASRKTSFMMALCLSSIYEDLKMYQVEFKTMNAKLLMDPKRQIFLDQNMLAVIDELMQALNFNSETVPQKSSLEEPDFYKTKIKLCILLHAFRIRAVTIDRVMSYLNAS
T5 sequence (looked up) 2: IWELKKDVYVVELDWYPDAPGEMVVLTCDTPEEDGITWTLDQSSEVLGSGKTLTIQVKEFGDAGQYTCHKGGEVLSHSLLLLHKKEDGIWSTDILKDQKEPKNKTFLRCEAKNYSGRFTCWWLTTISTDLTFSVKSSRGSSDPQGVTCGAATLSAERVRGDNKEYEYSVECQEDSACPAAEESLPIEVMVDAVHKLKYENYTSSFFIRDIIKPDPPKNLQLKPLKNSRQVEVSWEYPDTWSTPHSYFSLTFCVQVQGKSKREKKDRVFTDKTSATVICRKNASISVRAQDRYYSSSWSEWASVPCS
Method: as §1

[10] = target: T4, recombinant human IL-18; assay: cell-based or functional assay
[11] = target: T5, human IL-12; assay: cell-based or functional assay

B1: ½ IL1b DA1 Fc (Fc fusion)
chain: EVQLLESGGGLVQPGGSLRLSCAASGFTFADEGMMWVRQAPGKGLEWVSRITYSGKNTYYADSVKGRFTISRDNSKNTLYLQMNSLRAEDTAVYYCAKYTGRILGHHLFDYWGQGTLVTVSSEPKSSDKTHTSPPSPAPELLGGPSVFLFPPKPKDTLMISRTPEVTCVVVDVSHEDPEVKFNWYVDGVEVHNAKTKPREEQYNSTYRVVSVLTVLHQDWLNGKEYKCKVSNKALPAPIEKTISKAKGQPREPQVYTLPPSREEMTKNQVSLTCLVKGFYPSDIAVEWESNGQPENNYKTTPPVLDSDGSFRLYSKLTVDKSRWQQGNVFSCSVMHEALHNHYTQKSLSLSPGK
notes: Half domain antibody-Fc with Fc-Mut18; 82 % half-Ig by SEC; also called half IL1b DA1 Fc
- Kd [1]: 0.053 nM
- kon [1]: 120000 M⁻¹ s⁻¹
- IL-1β Neutralization Assay EC50 nM; IL-8 release from MRC5 cells [2]: 0.155 nM
- koff [3]: 6.4e-06 s⁻¹

B2: ½ IL1b DA2 Fc (Fc fusion)
chain: B1 chain with D31E, G33S, M34W, T52G, Y53Q, S54D, A61R, D62E, S63D, L104M
notes: Half domain antibody-Fc with Fc-Mut18; 83 % half-Ig by SEC; also called half IL1b DA2 Fc
- Kd [1]: 0.028 nM
- kon [1]: 170000 M⁻¹ s⁻¹
- koff [3]: 4.9e-06 s⁻¹

B3: Anti-c-Met Ig (parental 5D5 anti-cMet antibody) (antibody, human IgG1, kappa)
heavy: not shown
light: DFMMSQSPSSLTVSVGEKVTVSCKSSQSLLYTSSQKNYLAWYQQKPGQSPKLLIYWASTRESGVPDRFTGSGSGTDFTLTITSVKADDLAVYYCQQYYAYPWTFGGGTKLELKRTVAAPSVFIFPPSDEQLKSGTASVVCLLNNFYPREAKVQWKVDNALQSGNSQESVTEQDSKDSTYSLSSTLTLSKADYEKHKVYACEVTHQGLSSPVTKSFNRGEC
notes: Mouse 5D5 variable domains cloned into human Cg1 (z, non-a) and human Ck vectors; also called cMet mAb; wild-type c-Met antibody
- EC50 [4]: 0.00036 µM
- EC50 [5]: 0.0518 µM

B4: cMet-Mut13 (antibody, human IgG1, kappa)
heavy: QVQLQQSGPELVRPGASVKMSCRASGYTFTSYWLHWVKQRPGQGLEWIGMIDPSNSDTRFNPNFKDKATLNVDRSSNTAYMLLSSLTSADSAVYYCATYGSYVSPLDYWGQGTSVTVSSASTKGPSVFPLAPSSKSTSGGTAALGCLVKDYFPEPVTVSWNSGALTSGVHTFPAVLQSSGLYSLSSVVTVPSSSLGTQTYICNVNHKPSNTKVDKKVEPKSCDKTHTSPPSPAPELLGGPSVFLFPPKPKDTLMISRTPEVTCVVVDVSHEDPEVKFNWYVDGVEVHNAKTKPREEQYNSTYRVVSVLTVLHQDWLNGKEYKCKVSNKALPAPIEKTISKAKGQPREPQVYTLPPSREEMTKNQVSLTCLVKGFYPSDIAVEWESNGQPENNYKTTPAVLDSDGSFFLYSDLTVDKSRWQQGNVFSCSVMHEALHNHYTQKSLSLSPGK
light: B3 light
notes: Half-Ig; CH3 P395A, K409D; 94.9 % half-Ig by SEC; also called cMetHC-Mut13
- EC50 [6]: 0.63 µM

B5: cMet-Mut5 (antibody, human IgG1, kappa)
heavy: B4 heavy with F407R, Y409R
light: B3 light
notes: Half-Ig; CH3 P395A, F405R, Y407R, K409D; 97.2 % half-Ig by SEC; also called cMetHC-Mut5
- EC50 [6]: 3290 µM

B6: cMet-Mut11 (antibody, human IgG1, kappa)
heavy: B4 heavy with F407R, D411K
light: B3 light
notes: Half-Ig; CH3 P395A, F405R; 94.8 % half-Ig by SEC; also called cMetHC-Mut11; cMet half Ig mut11
- EC50 [6]: 4700 µM

B7: cMet-Mut10 (antibody, human IgG1, kappa)
heavy: B4 heavy with F407R
light: B3 light
notes: Half-Ig; CH3 P395A, F405R, K409D; 97.5 % half-Ig by SEC; also called cMetHC-Mut10; cMet half Ig mut10
- EC50 [6]: 293 µM

B8: cMet-Mut3 (antibody, human IgG1, kappa)
heavy: B4 heavy with T368F, L370F, F407R, Y409R
light: B3 light
notes: Half-Ig; CH3 T366F, L368F, P395A, F405R, Y407R, K409D; 82.4 % half-Ig by SEC; also called cMetHC-Mut3
- EC50 [6]: 1.13 µM

B9: cMet-Mut18 (antibody, human IgG1, kappa)
heavy: B4 heavy with A398P, F407R, D411K
light: B3 light
notes: Half-Ig; CH3 F405R; 94.5 % half-Ig by SEC; also called cMetHC-Mut18; cMet half Ig mut18
- EC50 [6]: 1980 µM

B10: cMet-Mut18-GTv2 (antibody, human IgG1, kappa)
heavy: B4 heavy with T309A, E382A, A398P, F407R, D411K, N436A
light: B3 light
notes: also called cMetHC-Mut18-GTv2
- EC50 [5]: 0.015 µM

B11: cMet-Mut18-QL (antibody, human IgG1, kappa)
heavy: B4 heavy with T252Q, A398P, F407R, D411K, M430L
light: B3 light
notes: also called cMetHC-Mut18-QL
- EC50 [5]: 0.035 µM

B12: cMet-Mut14 (antibody, human IgG1, kappa)
heavy: B4 heavy with A398P, F407R, Y409R, D411K
light: B3 light
notes: Half-Ig; CH3 F405R, Y407R; 96.1 % half-Ig by SEC; also called cMetHC-Mut14; cMet half Ig mut14
- EC50 [6]: 1.45 µM

B13: cMet-Mut20 (antibody, human IgG1, kappa)
heavy: B4 heavy with A398P
light: B3 light
notes: Half-Ig; CH3 K409D; 91.7 % half-Ig by SEC; also called cMetHC-Mut20
- EC50 [6]: 1.23 µM

B14: cMet-Mut1 (antibody, human IgG1, kappa)
heavy: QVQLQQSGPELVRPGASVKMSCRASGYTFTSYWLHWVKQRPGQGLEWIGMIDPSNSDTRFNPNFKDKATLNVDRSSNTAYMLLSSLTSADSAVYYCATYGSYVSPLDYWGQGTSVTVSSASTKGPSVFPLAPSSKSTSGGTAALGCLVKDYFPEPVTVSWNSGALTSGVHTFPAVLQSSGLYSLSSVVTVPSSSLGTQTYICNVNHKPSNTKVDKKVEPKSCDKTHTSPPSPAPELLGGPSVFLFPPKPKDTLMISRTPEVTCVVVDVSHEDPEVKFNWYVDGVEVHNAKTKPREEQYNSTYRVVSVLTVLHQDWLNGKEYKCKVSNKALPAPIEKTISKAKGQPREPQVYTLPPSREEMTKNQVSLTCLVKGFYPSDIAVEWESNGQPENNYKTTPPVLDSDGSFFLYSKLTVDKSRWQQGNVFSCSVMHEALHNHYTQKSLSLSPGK
light: B3 light
notes: also called cMetHC-Mut1
- EC50 [6]: 1.09 µM

B15: cMet-Mut19 (antibody, human IgG1, kappa)
heavy: B4 heavy with A398P, Y409R, D411K
light: B3 light
notes: Half-Ig; CH3 Y407R; 94.4 % half-Ig by SEC; also called cMetHC-Mut19
- EC50 [6]: 2.98 µM

B16: cMet-Mut6 half-Ig binding protein (antibody)
heavy: B4 heavy with C222S, S231C, F407R, Y409R
light: B3 light
notes: Half-Ig; CH3 P395A, F405R, Y407R, K409D; 100 % half-Ig by SEC; also called cMetHC-Mut6
- EC50 [7]: 0.00046 µM

B17: ½ IL12/IL18/PGE2 TVD (other)
heavy: EVTLRESGPALVKPTQTLTLTCTFSGFSLSKSVMGVSWIRQPPGKALEWLAHIYWDDDKYYNPSLKSRLTISKDTSKNQVVLTMTNMDPVDTATYYCARRGIRSAMDYWGQGTTVTVSSASTKGPEVQLVQSGTEVKKPGESLKISCKGSGYTVTSYWIGWVRQMPGKGLEWMGFIYPGDSETRYSPTFQGQVTISADKSFNTAFLQWSSLKASDTAMYYCARVGSGWYPYTFDIWGQGTMVTVSSASTKGPEVQLVQSGAEVKKPGASVKVSCKASGYTFTKYWLGWVRQAPGQGLEWMGDIYPGYDYTHYNEKFKDRVTLTTDTSTSTAYMELRSLRSDDTAVYYCARSDGSSTYWGQGTLVTVSSASTKGPSVFPLAPSSKSTSGGTAALGCLVKDYFPEPVTVSWNSGALTSGVHTFPAVLQSSGLYSLSSVVTVPSSSLGTQTYICNVNHKPSNTKVDKKVEPKSCDKTHTSPPSPAPELLGGPSVFLFPPKPKDTLMISRTPEVTCVVVDVSHEDPEVKFNWYVDGVEVHNAKTKPREEQYNSTYRVVSVLTVLHQDWLNGKEYKCKVSNKALPAPIEKTISKAKGQPREPQVYTLPPSREEMTKNQVSLTCLVKGFYPSDIAVEWESNGQPENNYKTTPPVLDSDGSFRLYSKLTVDKSRWQQGNVFSCSVMHEALHNHYTQKSLSLSPGK
light: DIVMTQSPDSLAVSLGERATINCKASQSVSNDVAWYQQKPGQPPKLLIYYASNRYTGVPDRFSGSGSGTDFTLTISSLQAEDVAVYYCQQDYNSPWTFGGGTKVEIKRTVAAPEIVMTQSPATLSVSPGERATLSCRASESISSNLAWYQQKPGQAPRLFIYTASTRATDIPARFSGSGSGTEFTLTISSLQSEDFAVYYCQQYNNWPSITFGQGTRLEIKRTVAAPDVLMTQTPLSLPVTPGEPASISCTSSQNIVHSNGNTYLEWYLQKPGQSPQLLIYKVSNRFSGVPDRFSGSGSGTDFTLKISRVEAEDVGVYYCFQVSHVPYTFGGGTKVEIKRTVAAPSVFIFPPSDEQLKSGTASVVCLLNNFYPREAKVQWKVDNALQSGNSQESVTEQDSKDSTYSLSSTLTLSKADYEKHKVYACEVTHQGLSSPVTKSFNRGEC
notes: Half TVD with hCg1-Mut18 (F405R, C226S, C229S); 78 % by SEC; also called Half IL12/IL18/PGE2 TVD; IL12/IL18/PGE2 TVD half-Ig
- Kd [8]: 0.00044 µM
- koff [8]: 5.9e-05 s⁻¹
- kon [8]: 130000 M⁻¹ s⁻¹
- Kd [9]: 0.00013 µM
- koff [9]: 5.1e-05 s⁻¹
- kon [9]: 400000 M⁻¹ s⁻¹
- Neutralization of IL-18 IC50 (nM); IFN-γ release from KG-1 cells [10]: 0.918 nM
- Neutralization of IL-12 IC50 (nM); IFN-γ release from PHA blast cells [11]: 12.5 nM
